In the supplement of paper PMC12042874:
± gives the uncertainty stated by the source.

Assay: amyloid nucleation score (Sup35N fusion, yeast selection) (log enrichment); library NNK2; higher = more nucleation; inactive = no reads after selection
Outline: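 The nucleation score equals the log enrichment of output over input reads from DiMSum, centred on the mode score of non-aggregating sequences. It was computed only for sequences with 100 or more input reads. The reads came from Illumina sequencing of plasmid inserts from psi-negative yeast expressing Sup35N fused to peptides of 20 random codons, induced with 100 μM copper sulfate for 24 hours and grown 7 days at 30°C without adenine and uracil.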

Compared with LLMVRVGRSQVRSNKNRH, WKSCWLGIWSEGIYILGEET is lower in amyloid nucleation score: 5.984 ± 0.054 for the first, -0.284 ± 1.1 for the second.

VDIASLKLTSNH and DYMNGDKSKKGDYWIMSVNS are within error of each other in amyloid nucleation score: -0.213 ± 0.65 for the first, 0.154 ± 0.65 for the second.

Going from TFNKLYYSSVACLCRLGHSR to KDFLANPKGESGQQRTMQCI, the amyloid nucleation score falls from 9.32 ± 0.055 to -0.502 ± 0.79.

RFHGTGSQHS and KKRLCDTSTIFQINNLHRMM are within error of each other in amyloid nucleation score: -0.496 ± 0.39 for the first, -1.32 ± 0.76 for the second.

RVPTSNLWSGNFYTALRVTG and INRKGRRI are within error of each other in amyloid nucleation score: -0.833 ± 0.63 for the first, 0.007 ± 0.79 for the second.

AQAFLNGVGRLLVCTRTCRN and IKYYVTVWSLESDTAWVGGL are within error of each other in amyloid nucleation score: 0.895 ± 0.81 for the first, 0.196 ± 0.45 for the second.

Going from CHYRMVVKRYTFEHYAFYVG to RLDLYRNMAMVVWQSIDEPP, the amyloid nucleation score rises from -0.782 ± 0.61 to 0.574 ± 0.41.

LFDLDSESRMTPQGGLRNAT and DVVEDF are within error of each other in amyloid nucleation score: -0.665 ± 0.54 for the first, -0.02 ± 0.49 for the second.

Compared with SIGNIVVLVEERSVRQPTLF, FCPVHSGISS is lower in amyloid nucleation score: 2.79 ± 0.14 for the first, -0.578 ± 0.79 for the second.

Going from FVSIVPYRFL to RLHGGHLRRM, the amyloid nucleation score rises from -1.56 ± 0.48 to 0.902 ± 0.21.

Compared with ALVVLFTCGCSGMLVYNAWS, HRPNCFRWPGLRVLFWYRK is lower in amyloid nucleation score: 0.841 ± 0.13 for the first, -0.326 ± 0.45 for the second.

Going from LRTYYPRNVGA to LDDSYPCFASIITI, the amyloid nucleation score rises from -0.117 ± 0.5 to 1.01 ± 0.41.

VVERKLVMHYGMEMYTVHDG and DTMRYLAGYLMACWPVEWSG are within error of each other in amyloid nucleation score: 0.971 ± 0.51 for the first, 0.685 ± 0.22 for the second.

GPLSNLYTKYDANENDGFIL and FAGYECIE are within error of each other in amyloid nucleation score: -0.321 ± 0.41 for the first, -0.881 ± 0.37 for the second.

IFDYSV and NTMLAFAKKSRMHFSLLLLV are within error of each other in amyloid nucleation score: -0.874 ± 0.55 for the first, -0.022 ± 0.37 for the second.

First: TTPLTRRFRRFHVW
Second: FGNRLNFDILTTFVIKRWCM
The amyloid nucleation score of the first is higher: 1.02 ± 0.26 for the first, -0.342 ± 0.76 for the second.

First: VFKFLSAISPFKGD
Second: NFSFRLYLLLETSIMYIGKT
The amyloid nucleation score of the first is higher: 0.551 ± 0.38 for the first, -1.3 ± 0.38 for the second.

Compared with PCSRPTLLPCHCGTTTTSHI, YSGTWLMVHKNLMVRKKLVP is lower in amyloid nucleation score: 2.4 ± 0.1 for the first, 0.499 ± 0.38 for the second.

SGFSLDLLVGGPCVPDLTVR and YVMSAVFYSVRFVAIETCKV are within error of each other in amyloid nucleation score: 0.228 ± 1 for the first, 0.155 ± 0.57 for the second.

First: WTTIEFRIKGNFM
Second: IVKFDVRVMCADLIGSHGQW
The amyloid nucleation score of the first is lower: 1.59 ± 0.19 for the first, 7.02 ± 0.085 for the second.

Going from MRSFCFSVQNIQVTYHVGLA to SNMASIFTPKRSFNSEVENQ, the amyloid nucleation score falls from 3.94 ± 0.1 to -1.31 ± 0.61.

HTTGFPFRGLGDIDSLAEQF and KGSSSWTLPVYSLELSLV are within error of each other in amyloid nucleation score: -0.217 ± 0.79 for the first, -0.731 ± 0.79 for the second.

Going from IKHVEDASGKRTDSRLFTRD to TYNGMFTQLAFG, the amyloid nucleation score rises from -0.545 ± 0.54 to 3.48 ± 0.07.

First: LASLSDFPFYLTWWS
Second: LGLLFAINTVLSSQLR
The amyloid nucleation score of the first is lower: -0.157 ± 0.45 for the first, 7.703 ± 0.076 for the second.

CDVRSPSF and GKINDSGTSYSEKRSGPCRL are within error of each other in amyloid nucleation score: -1.02 ± 0.3 for the first, -0.874 ± 0.25 for the second.

First: SAYDSTCRFISGFL
Second: PNVCKLYMWQFGTLNQAPQR
The amyloid nucleation score of the first is lower: -1.68 ± 1 for the first, 8.399 ± 0.065 for the second.

ASVAGSV and SREVRNANPSSGDDGSIRVE are within error of each other in amyloid nucleation score: 0.781 ± 0.27 for the first, -0.02 ± 1.1 for the second.

First: VRCNFISVWSCDVESIVVES
Second: NSTKTRLSSDTTLDFLEATR
The amyloid nucleation score of the first is higher: 5.096 ± 0.046 for the first, -0.299 ± 0.27 for the second.

MNVMNQSSFHMV and TFGYCISLMTLTFVH are within error of each other in amyloid nucleation score: -0.108 ± 1.1 for the first, -0.239 ± 0.28 for the second.

FVVQPLSSFLWVSIA and RMGKRNFEQNSANQWVPMNP are within error of each other in amyloid nucleation score: 1.05 ± 0.3 for the first, 0.691 ± 0.6 for the second.

First: RYFSISAFMVMGTVNVGGYW
Second: RFRTKLECPYMIS
The amyloid nucleation score of the first is higher: 4.18 ± 0.045 for the first, 0.453 ± 0.35 for the second.

First: SVYNWYIIPANCEQDLCM
Second: REVWCRISLKFFYMGDLFVR
The amyloid nucleation score of the first is higher: 5.54 ± 0.095 for the first, 0.008 ± 0.8 for the second.

TLCLMVVFKSRYCSFRIHMM and VENVTDGAVSARYDDMDTSS are within error of each other in amyloid nucleation score: 0.21 ± 1 for the first, -0.179 ± 0.3 for the second.

First: FTVLCYSSDIMEDFRFTHHN
Second: STVTELLRYPAHNFGEVHIL
The amyloid nucleation score of the first is lower: 4.12 ± 0.047 for the first, 4.702 ± 0.047 for the second.

First: LINWVVVLYG
Second: YGRCNGLSGCQRGSCSREGG
The amyloid nucleation score of the first is higher: 1.9 ± 0.14 for the first, 0.483 ± 0.46 for the second.

Compared with GLTSFMLDVLRGETAHRGEG, MMGVCF is lower in amyloid nucleation score: 0.972 ± 0.52 for the first, -0.916 ± 1.1 for the second.

SFMDQHFS and DKYSIVSSGPYMSNKSLVRR are within error of each other in amyloid nucleation score: -0.419 ± 0.63 for the first, -0.109 ± 0.79 for the second.

First: TYDLDLVMLRSMRVENLLWG
Second: CTFKFMAVQFCG
The amyloid nucleation score of the first is lower: 0.616 ± 0.4 for the first, 5.46 ± 0.073 for the second.

With RRIINWPNSGIGIPRSKSMF the amyloid nucleation score was “inactive”.
With DGKVSC the amyloid nucleation score was “inactive”.
For YSLVRIFDGVWITRDSCNIL, the amyloid nucleation score was “inactive”.
With INQFIFGTKRMSKNYVSMVR the amyloid nucleation score was “inactive”.
With VRSKVFALVGAFSMIKFRGC the amyloid nucleation score was “inactive”.
For RFLKNRMLNCKVIGIWWKCY, the amyloid nucleation score was “inactive”.
For KMSPQ, the amyloid nucleation score was “inactive”.
With YSGFI the amyloid nucleation score was “inactive”.
With GRSGRNNVKAW the amyloid nucleation score was “inactive”.
